Measured values taken from patent publication US20060252692A1, “Inhibitors for use in hemostasis” (ZymoGenetics, Inc., priority 2002, published 2006).

Assays:
DA-1 cells = assay: Proliferation assay on zsig37-coated plates, DA-1; type: cell-based, mouse; conditions: 5,000 cells/well
Experimental: A second assay was performed with TF-1, DA-1, an IL-3 dependent cell line derived from the lymph node of a mouse with a B-cell lymphoma by outgrowth in IL-3 media, pre-B (p53−/− mouse marrow cells, IL-7 dependent, B220+, Thy1 low, Sca-1+), and A7BaF-3 cell lines as described above at 5,000 cells/well. BHK cells were also plated at 500 cells/well.

[1] = test system: norepinepherin contracted aortic rings; assay: Vasodilatation of norepinepherin contracted aortic rings; set-up: species or system Sprague Dawley rats; conditions: 323, 162, and 81 ng/ml
Experimental: The effect of zsig37 on vasodilatation of aortic rings was measured according to the procedures of (Dainty et al., J. Pharmacol. 100:767 (1990), and Rhee et al., Neurotox. 16:179 (1995)). Briefly, aortic rings 4 mm in length were taken from 4 month old Sprague Dawley rats and placed in modified Krebs solution (118.5 mM NaCl, 4.6 mM KCl, 1.2 mM MgSO4.7H2O, 1.2 mM KH2PO4, 2.5 mM CaCl2.2H2O, 24.8 mM NaHCO3 and 10 mM glucose). The rings were then attached to an isometric force transducer (Radnoti Inc.; Monrovia, Calif.) and the data recorded with a Ponemah physiology platform (Gould Instrument systems, Inc.; Valley View, Ohio) and placed in a 10 ml tissue bath oxygenated (95% O2, 5% CO2) modified Krebs solution. The tissues were adjusted to one gram resting tension and allowed to stabilize for one hour before testing.
The rings were tested by 5 μl additions of […] norepinepherin (Sigma Chemical Co.; St. Louis, Mo.) to a final concentration of about 1×10^−9 M and Carbachol, a muscarinic acetylcholine agonist (Sigma Chemical Co.) at 2×10^−7 M final, to test the integrity of the rings. After each test, the rings were washed three times with fresh buffer, five minutes between washes and allowed to rest one hour. […] Zsig37 was then added to one, two, or three of the four baths, without flushing, and tension on the rings was recorded and compared to the control rings. […]

[2] = test system: atherosclerotic rabbit femoral/iliac artery crush injury; assay: Atherosclerotic Folts model, blood flow; type: in vivo, New Zealand White rabbits; conditions: 1 mg/kg bolus, n=8, vs 1 mg/kg BSA; p=0.0305
From the text: In the present experiment the standard Folts model was modified to study restenosis in rabbits. In this design, New Zealand White rabbits that normally are not prone to atherosclerosis were fed an atherogenic diet (e.g., 2% cholesterol and 6% coconut oil) for two weeks, underwent balloon denudation of an artery segment and then were continually fed the atherogenic diet. Within three weeks, atherosclerotic plaque had accumulated in the balloon-injured area. At this time, the animal was prepped for surgery and the atherosclerotic vessel was injured via a crush procedure and a Folts model study was performed.
Eleven male New Zealand White rabbits weighing 2.0-2.5 kg were used in this study. Atherosclerosis was developed in the right iliac and femoral arteries following a protocol described by Faxon et al., Am J. Cardiol., 1984, 53:72C-76C; and Faxon et al., Atherosclerosis. 1982, 2:125-133), with the following modifications. […]
Animals were administered 100 U/kg heparin. […] The flow rate was monitored and the vessel tapped to release the thrombus when the flow rate approached 0.7 ml/min. […] Blood flow through the injured vessel was monitored for 60 minutes post bolus infusion. […] Blood pressure was monitored throughout and, prior to termination, blood samples for coagulation factors were collected. […]
Statistical Analysis. All values are expressed as mean±SEM. […]

B1: zsig37: adipocyte complement related protein homolog, polypeptide of SEQ ID NO:2, inhibits collagen-mediated platelet activation and the complement pathway (protein, listed as Homo sapiens)
chain: MGSRGQGLLLAYCLLLAFASGLVLSRVPHVQGEQQEWEGTEELPSPPDHAERAEEQHEKYRPSQDQGLPASRCLRCCDPGTSMYPATAVPQINITILKGEKGDRGDRGLQGKYGKTGSAGARGHTGPKGQKGSMGAPGERCKSHYAAFSVGRKKPMHSNHYYQTVIFDTEFVNLYDHFNMFTGKFYCYVPGLYFFSLNVHTWNQKETYLHIMKNEEEVVILFAQVGDRSIMQSQSLMLELREQDQVWVRLYKGERENAIFSEELDTYITFSGYLVKHATEP
DA-1 cells
  growth of DA-1 cells: slightly inhibited growth
[1]
  dose response of vasodilatation: dose response could not be determined
[1]; two of seven controls dilated, Fisher exact P 0.045
  rings vasodilated: 10 of the 12
[2]
  blood flow in final 30 minutes: continuously patent
